{"source": "paper PMC6957217", "about": "“Molecular anatomy of the receptor binding module of a bacteriophage long tail fiber” (PLoS Pathogens, 2019)", "proteins": {"B1": {"name": "Phage T4 LTF needle (gp37; amino acids 799–1026), wild type (domain or fragment)", "chain": "not shown", "notes": "bacteriophage T4 long tail fiber protein gp37, needle (domains D10 and D11), amino acids 799-1026; pCDF Duet-1 MCS1; also called gp37 needle; WT gp37; source: E. coli BL21 (DE3) pLysS, co-expressed with chaperones gp38 and gp57A, purified (HisTrap, Superdex-200 SEC, trimer peak)"}}, "molecular_target": "the molecule itself", "experiment": "SEC; Hi-Load 16/60 Superdex-200 in PBS pH 7.4; trimers eluted at the expected 81 kDa size", "data": [{"protein": "B1", "values": [{"measurement": "stoichiometry N", "result": 3}]}]}
